Laboratory results: patent US20150086535A1

Biological target: retinoblastoma protein (RB1) (human) (UniProt P06400)
Assay: cell-based or functional assay

retinoblastoma protein (RB1) (human), sequence (P06400 2-928 limits assumed): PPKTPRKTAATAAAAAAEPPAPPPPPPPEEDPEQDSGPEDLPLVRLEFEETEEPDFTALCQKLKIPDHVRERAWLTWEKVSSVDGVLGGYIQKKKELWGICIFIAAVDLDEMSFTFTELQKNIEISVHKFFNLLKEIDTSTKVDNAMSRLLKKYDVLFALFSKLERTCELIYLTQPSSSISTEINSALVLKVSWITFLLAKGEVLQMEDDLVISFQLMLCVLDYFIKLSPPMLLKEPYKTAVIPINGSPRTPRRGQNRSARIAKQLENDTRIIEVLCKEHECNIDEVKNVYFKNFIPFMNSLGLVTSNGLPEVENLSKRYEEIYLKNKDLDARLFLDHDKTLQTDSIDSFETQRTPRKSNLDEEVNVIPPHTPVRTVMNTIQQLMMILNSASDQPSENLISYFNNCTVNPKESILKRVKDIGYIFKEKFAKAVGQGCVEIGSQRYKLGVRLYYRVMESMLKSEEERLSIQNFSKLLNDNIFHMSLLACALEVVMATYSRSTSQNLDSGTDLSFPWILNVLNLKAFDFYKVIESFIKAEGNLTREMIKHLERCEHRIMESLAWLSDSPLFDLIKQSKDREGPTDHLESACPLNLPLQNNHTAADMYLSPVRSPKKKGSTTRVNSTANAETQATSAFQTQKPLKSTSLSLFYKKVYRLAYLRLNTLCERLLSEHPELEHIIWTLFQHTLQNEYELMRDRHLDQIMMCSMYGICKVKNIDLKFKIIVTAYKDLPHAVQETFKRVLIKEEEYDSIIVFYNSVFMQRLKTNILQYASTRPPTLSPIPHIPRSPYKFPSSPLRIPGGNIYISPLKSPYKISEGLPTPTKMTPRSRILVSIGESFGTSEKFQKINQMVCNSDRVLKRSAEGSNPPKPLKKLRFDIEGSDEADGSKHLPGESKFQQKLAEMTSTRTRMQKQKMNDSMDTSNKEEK

Truncated tumor-derived Merkel cell polyomavirus large T antigen LT339 (MCV339 strain, amino acid 1-455)
survivin protein level in BJ fibroblasts (ECL and quantitative LICOR immunoblotting): 3 fold
